Laboratory results published in article PMC6555819, “Comprehensive study of nuclear receptor DNA binding provides a revised framework for understanding receptor specificity”.
Substitutions are numbered along the chain they refer to.

Tests used:
[1] = target: RXRa (Homo sapiens, UniProt P19793); experiment: no ligand; PBM; 180 nM; PBS pH 7.4, 2% milk, 0.02% Triton X-100, 1 mM DTT, BSA, 0.4 mg/ml salmon testes DNA; conditions: tags: His cleaved; chain copies: 2; label: surface-attached array probe
[2] = target: PPARg:RXRa (Homo sapiens, UniProt P37231;P19793 full;full); experiment: no ligand; PBM; 180 nM : 90 nM RXRa; PBS pH 7.4, 2% milk, 0.02% Triton X-100, 1 mM DTT, BSA, 0.4 mg/ml salmon testes DNA; conditions: tags: His kept;His cleaved; copies: 1;1; label: surface-attached array probe
[3] = target: RARa:RXRa (Homo sapiens, UniProt P10276;P19793 full;full); experiment: no ligand; PBM; 270 nM : 90 nM RXRa; PBS pH 7.4, 2% milk, 0.02% Triton X-100, 1 mM DTT, BSA, 0.4 mg/ml salmon testes DNA; conditions: tags: His kept;His cleaved; copies: 1;1; label: surface-attached array probe
How it was run: (§1)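 Binding z-scores were set against random background probes. The data came from custom Agilent 4×180K protein-binding microarrays carrying double-stranded probes with 34-nt variable regions, incubated 1 h with ligand-free nuclear receptor dimers. Partner-specific antibodies detected binding, and scanned fluorescence was regression-normalized.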

[4] = target: PPARa:RXRa (Homo sapiens, UniProt Q07869;P19793 full;full); experiment: as above; conditions: tags: GST kept;His cleaved; copies: 1;1; label: surface-attached array probe
How it was run: as §1

[5] = target: VDR:RXRa (Homo sapiens, UniProt P11473;P19793 full;full); experiment: as above; conditions: tags: His kept;His cleaved; copies: 1;1; label: surface-attached array probe
How it was run: as §1

[6] = target: LXRb:RXRa (Homo sapiens, UniProt P55055;P19793 full;full); experiment: as above; conditions: tags: His kept;His cleaved; copies: 1;1; label: surface-attached array probe
How it was run: as §1

Sequence of PPARg:RXRa (P37231 29-505, chain 1 of 2): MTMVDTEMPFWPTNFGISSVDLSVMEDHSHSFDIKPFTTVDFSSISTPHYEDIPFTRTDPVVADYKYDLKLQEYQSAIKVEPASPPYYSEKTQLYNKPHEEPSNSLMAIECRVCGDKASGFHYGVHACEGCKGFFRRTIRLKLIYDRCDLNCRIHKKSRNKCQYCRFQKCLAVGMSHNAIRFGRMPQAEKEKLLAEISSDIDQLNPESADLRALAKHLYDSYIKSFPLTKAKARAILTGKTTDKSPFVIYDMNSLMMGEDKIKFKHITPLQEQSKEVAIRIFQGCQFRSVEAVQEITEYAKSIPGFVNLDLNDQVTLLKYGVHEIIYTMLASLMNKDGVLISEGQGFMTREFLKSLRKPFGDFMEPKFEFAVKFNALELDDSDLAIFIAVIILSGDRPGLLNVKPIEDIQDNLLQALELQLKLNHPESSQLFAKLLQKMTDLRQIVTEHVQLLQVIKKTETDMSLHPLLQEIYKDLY
Sequence of PPARg:RXRa (P19793 whole entry, chain 2 of 2): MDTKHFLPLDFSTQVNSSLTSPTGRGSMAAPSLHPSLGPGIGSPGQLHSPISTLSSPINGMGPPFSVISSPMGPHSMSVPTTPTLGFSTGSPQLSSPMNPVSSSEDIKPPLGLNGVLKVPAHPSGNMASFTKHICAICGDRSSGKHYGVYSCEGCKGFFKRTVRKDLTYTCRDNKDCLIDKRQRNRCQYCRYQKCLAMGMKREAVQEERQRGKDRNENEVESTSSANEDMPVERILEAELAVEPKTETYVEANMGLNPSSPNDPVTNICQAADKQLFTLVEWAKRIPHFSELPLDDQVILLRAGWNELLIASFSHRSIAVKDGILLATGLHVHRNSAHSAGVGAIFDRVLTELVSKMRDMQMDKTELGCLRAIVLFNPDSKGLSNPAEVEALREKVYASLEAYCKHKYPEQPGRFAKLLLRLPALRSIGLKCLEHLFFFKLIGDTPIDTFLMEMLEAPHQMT
Sequence of RXRa (P19793 whole entry): as the sequence (P19793 whole entry, chain 2 of 2) above
Sequence of RARa:RXRa (P10276 whole entry, chain 1 of 2): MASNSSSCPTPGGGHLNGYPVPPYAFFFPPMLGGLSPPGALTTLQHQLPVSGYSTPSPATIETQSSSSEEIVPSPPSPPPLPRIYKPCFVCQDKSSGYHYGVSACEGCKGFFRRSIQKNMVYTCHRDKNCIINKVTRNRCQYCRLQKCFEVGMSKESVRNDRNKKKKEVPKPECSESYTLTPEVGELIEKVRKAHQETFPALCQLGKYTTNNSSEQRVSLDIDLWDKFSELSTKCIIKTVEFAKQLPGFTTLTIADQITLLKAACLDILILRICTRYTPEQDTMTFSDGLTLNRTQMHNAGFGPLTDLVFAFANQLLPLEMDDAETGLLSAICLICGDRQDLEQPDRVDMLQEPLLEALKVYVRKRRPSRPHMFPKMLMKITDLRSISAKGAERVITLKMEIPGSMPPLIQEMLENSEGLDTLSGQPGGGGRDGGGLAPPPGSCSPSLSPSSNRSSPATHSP
Sequence of RARa:RXRa (P19793 whole entry, chain 2 of 2): as the sequence (P19793 whole entry, chain 2 of 2) above
Sequence of PPARa:RXRa (Q07869 whole entry, chain 1 of 2): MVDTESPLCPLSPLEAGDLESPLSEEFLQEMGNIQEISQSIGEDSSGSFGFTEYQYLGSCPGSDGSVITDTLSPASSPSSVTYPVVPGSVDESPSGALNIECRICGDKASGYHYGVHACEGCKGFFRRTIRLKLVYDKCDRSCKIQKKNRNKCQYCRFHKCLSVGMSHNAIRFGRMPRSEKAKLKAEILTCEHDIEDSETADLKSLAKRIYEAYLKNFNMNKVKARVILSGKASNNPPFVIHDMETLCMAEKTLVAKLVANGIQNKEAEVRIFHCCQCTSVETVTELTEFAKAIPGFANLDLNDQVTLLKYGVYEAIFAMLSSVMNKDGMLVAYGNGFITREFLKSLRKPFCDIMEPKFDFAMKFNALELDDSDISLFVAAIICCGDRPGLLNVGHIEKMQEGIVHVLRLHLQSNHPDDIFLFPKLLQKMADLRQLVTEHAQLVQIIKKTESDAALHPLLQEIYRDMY
Sequence of PPARa:RXRa (P19793 whole entry, chain 2 of 2): as the sequence (P19793 whole entry, chain 2 of 2) above
Sequence of VDR:RXRa (P11473 whole entry, chain 1 of 2): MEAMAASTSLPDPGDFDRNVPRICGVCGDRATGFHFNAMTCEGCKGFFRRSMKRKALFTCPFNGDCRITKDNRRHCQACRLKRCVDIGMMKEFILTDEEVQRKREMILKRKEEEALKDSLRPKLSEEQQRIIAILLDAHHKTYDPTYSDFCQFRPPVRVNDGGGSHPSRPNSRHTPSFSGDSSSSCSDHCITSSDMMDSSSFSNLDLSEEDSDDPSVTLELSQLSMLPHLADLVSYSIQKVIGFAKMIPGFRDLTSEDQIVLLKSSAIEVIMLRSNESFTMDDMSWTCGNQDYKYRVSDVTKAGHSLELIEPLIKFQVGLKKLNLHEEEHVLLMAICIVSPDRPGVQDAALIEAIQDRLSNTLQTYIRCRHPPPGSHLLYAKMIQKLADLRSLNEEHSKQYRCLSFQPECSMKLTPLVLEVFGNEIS
Sequence of VDR:RXRa (P19793 whole entry, chain 2 of 2): as the sequence (P19793 whole entry, chain 2 of 2) above
Sequence of LXRb:RXRa (P55055 whole entry, chain 1 of 2): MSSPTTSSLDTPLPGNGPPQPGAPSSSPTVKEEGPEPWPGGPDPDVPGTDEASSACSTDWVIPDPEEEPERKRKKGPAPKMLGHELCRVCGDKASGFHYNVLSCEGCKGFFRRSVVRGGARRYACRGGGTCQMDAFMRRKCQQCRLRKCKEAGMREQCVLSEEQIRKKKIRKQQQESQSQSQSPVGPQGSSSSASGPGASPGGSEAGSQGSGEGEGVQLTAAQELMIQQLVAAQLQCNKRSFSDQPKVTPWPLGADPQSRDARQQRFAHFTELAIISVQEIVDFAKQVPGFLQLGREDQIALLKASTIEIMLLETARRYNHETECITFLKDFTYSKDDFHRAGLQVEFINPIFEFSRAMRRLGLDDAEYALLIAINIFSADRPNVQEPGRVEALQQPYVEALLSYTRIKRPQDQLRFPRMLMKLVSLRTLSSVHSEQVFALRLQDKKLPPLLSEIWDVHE
Sequence of LXRb:RXRa (P19793 whole entry, chain 2 of 2): as the sequence (P19793 whole entry, chain 2 of 2) above

B1: NRC3_wobSeed46_DR1_G21A_o1 (dsDNA)
DNA 1: GCTTACCAAGGTGAAAGGTCATTGATGCACGCCTTGGCGATTGACAGCGTAGAATGAAGG
DNA 2: CCTTCATTCTACGCTGTCAATCGCCAAGGCGTGCATCAATGACCTTTCACCTTGGTAAGC
B1 was tested, and the binding signal [1] was 8.42 PBM z-score against 500 random probes, the binding signal [2] was 10.9 PBM z-score against 500 random probes and the binding signal [3] was 8.37 PBM z-score against 500 random probes. The binding signal [4] was 6.54 PBM z-score against 500 random probes.

B2: NRC3_wobSeed32_DR1_A11G_o1 (dsDNA)
DNA 1: GCTCTTGTAGGTCAAAGGTTAAGAAAGCCGAAGCCTGCGATTGACAGCGTAGAATGAAGG
DNA 2: CCTTCATTCTACGCTGTCAATCGCAGGCTTCGGCTTTCTTAACCTTTGACCTACAAGAGC
B2 was tested, and the binding signal [1] was 9.29 PBM z-score against 500 random probes, the binding signal [2] was 12.7 PBM z-score against 500 random probes and the binding signal [3] was 8.25 PBM z-score against 500 random probes. For the same binder, the binding signal [4] was 7.1 PBM z-score against 500 random probes.

B3: NRC3_wobSeed31_DR1_A13C_o1 (dsDNA)
DNA 1: GCTCATATAGGTCAAAGGTGAAAGTCGGTGTGGTAAGCGATTGACAGCGTAGAATGAAGG
DNA 2: CCTTCATTCTACGCTGTCAATCGCTTACCACACCGACTTTCACCTTTGACCTATATGAGC
With B3 the binding signal [1] was 8.68 PBM z-score against 500 random probes, the binding signal [2] was 11.9 PBM z-score against 500 random probes and the binding signal [3] was 7.84 PBM z-score against 500 random probes. For the same binder, the binding signal [4] was 6.9 PBM z-score against 500 random probes.

B4: NRC3_wobSeed31_DR1_G20C_o1 (dsDNA)
DNA 1: B3 DNA 1 with C13A, G20C
DNA 2: B3 DNA 2 with C41G, G48T
With B4 the binding signal [1] was 8.7 PBM z-score against 500 random probes, the binding signal [2] was 11.8 PBM z-score against 500 random probes and the binding signal [3] was 7.77 PBM z-score against 500 random probes. The binding signal [4] was 6.94 PBM z-score against 500 random probes.

B5: NRC3_wobSeed43_DR1_A20C_o1 (dsDNA)
DNA 1: GCCCAGACAGGTGAAAGGTCACTCAGTCTGGTACGCGCGATTGACAGCGTAGAATGAAGG
DNA 2: CCTTCATTCTACGCTGTCAATCGCGCGTACCAGACTGAGTGACCTTTCACCTGTCTGGGC
B5 was tested, and the binding signal [1] was 8.23 PBM z-score against 500 random probes, the binding signal [2] was 10.4 PBM z-score against 500 random probes and the binding signal [3] was 7.65 PBM z-score against 500 random probes.

B6: NRC3_wobSeed36_DR1_T20C_o1 (dsDNA)
DNA 1: GCCCGACTGGGGCAAAGGTCACCATACTCAGTACGAGCGATTGACAGCGTAGAATGAAGG
DNA 2: CCTTCATTCTACGCTGTCAATCGCTCGTACTGAGTATGGTGACCTTTGCCCCAGTCGGGC
B6 was tested, and the binding signal [1] was 8.25 PBM z-score against 500 random probes, the binding signal [2] was 12.5 PBM z-score against 500 random probes and the binding signal [3] was 7.41 PBM z-score against 500 random probes. The binding signal [4] was 6.53 PBM z-score against 500 random probes.

B7: NRC3_wobSeed42_DR1_C19G_o1 (dsDNA)
DNA 1: GCTATACAGGGTCAAAGGGCAGAGTACGAATGTCGAGCGATTGACAGCGTAGAATGAAGG
DNA 2: CCTTCATTCTACGCTGTCAATCGCTCGACATTCGTACTCTGCCCTTTGACCCTGTATAGC
In the case of B7, the binding signal [1] is reported as 8.22 PBM z-score against 500 random probes, the binding signal [2] is reported as 9.96 PBM z-score against 500 random probes and the binding signal [3] is reported as 7.26 PBM z-score against 500 random probes.

B8: NRC3_random_hg19_6_o1 (dsDNA)
DNA 1: GCACTCAGAGAGTTGAAGTGATTTGCCCAAGACCACGCGATTGACAGCGTAGAATGAAGG
DNA 2: CCTTCATTCTACGCTGTCAATCGCGTGGTCTTGGGCAAATCACTTCAACTCTCTGAGTGC
In the case of B8, the binding signal [2] is reported as 0.15 PBM z-score against 500 random probes, the binding signal [3] is reported as 0.23 PBM z-score against 500 random probes and the binding signal [5] is reported as -0.28 PBM z-score against 500 random probes.

B9: NRC3_random_hg19_13_o1 (dsDNA)
DNA 1: GCCACATCTGTAATCCCAGCACTTTGGGAGGCCAAGGCGATTGACAGCGTAGAATGAAGG
DNA 2: CCTTCATTCTACGCTGTCAATCGCCTTGGCCTCCCAAAGTGCTGGGATTACAGATGTGGC
In the case of B9, the binding signal [1] is reported as 0.22 PBM z-score against 500 random probes, the binding signal [2] is reported as 0.3 PBM z-score against 500 random probes and the binding signal [3] is reported as 0.01 PBM z-score against 500 random probes.

B10: NRC3_random_hg19_307_o1 (dsDNA)
DNA 1: GCATGTTAGAGCTCATGGAGAAGTGTCCTATGTGATGCGATTGACAGCGTAGAATGAAGG
DNA 2: CCTTCATTCTACGCTGTCAATCGCATCACATAGGACACTTCTCCATGAGCTCTAACATGC
B10 was tested, and the binding signal [2] was 0.17 PBM z-score against 500 random probes, the binding signal [6] was -0.8 PBM z-score against 500 random probes and the binding signal [3] was -0.77 PBM z-score against 500 random probes.
